Laboratory results reported in the nanobody polyreactivity screen of Harvey et al. (2022).

Experiment: yeast display, Sf9 membrane polyspecificity reagent, FACS + sequencing; frameworks hold sequencing errors
Summary of the method: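 Polyreactivity labels are assigned by the sorting gate from which each nanobody was recovered. The gates were low and high (top ~1%), set on anti-HA fluorescence for expression and streptavidin fluorescence for reagent binding. Before sorting, galactose-induced (36–48 hours) yeast display cells were stained for 1 hour at 4 °C with 10% biotinylated, detergent-solubilized Sf9 membrane reagent.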

| Sequence | polyreactivity (PSR sort gate) |
| --- | --- |
| QVQLVESGGGLVQAGGSLRLSCAASGSILAINAMGWYRQAPGKERELVAAINWSRGSTFYADSVKGRFTISRDNAKNTVYLQMNSLKPEDTAVYYCNVEWTDSERGDYYVDYDYWGQGTQVTVSS | low polyreactivity |
| QVQLVESGGGLVQAGGSLRLSCAASGSILARYAMGWYRQAPGKERELVAAISYNGGSTYYADSVKGRFTISRDNAKNTVYLQMNSRKPEDTAVYYCAKAYDTTLTYNYWGQGTQVTVSS | low polyreactivity |
| QVQLVESGGGLVQAGGSLRLSCAASGSILASYAMGWYRQAPGKERELVAAINRGGRTKYADSVKGRFTISRDNAKNTVYLQMNSLKPEDTAVYYCAKSDSQYEGDGYWGQGTQVTVSS | high polyreactivity |
| QVQLVESGGGLVQAGGSLRLSCAASGSILDGNAMGWYRQAPGKERELVAAITRSGGRTYYADSVKGRFTISRDNAKNTVYLQMNSLKPEDTAVYYCNVDVPGVRFEYWGQGTQVTVSS | low polyreactivity |
| QVQLVESGGGLVQAGGSLRLSCAASGSILDIYAMGWSRQAPGKERELVAGISTSGGSTYYADSVKGRFTISRDNAKNTVYLQMNSLKPEDTAVYYCAKDYGYQGHTRTLYWAYLEYDYWGQGTQVTVSS | low polyreactivity |
| QVQLVESGGGLVQAGGSLRLSCAASGSILDIYAMGWSRQAPGKERELVAGMSTTGGSTYYADSVKGRFTISRDNAKNTVYLQMNSLKPEDTAVYYCAKDYGYQGHTRTLYWAYLEYDYWGQGTQVTVSS | low polyreactivity |
| QVQLVESGGGLVQAGGSLRLSCAASGSILDIYAMGWYRQAPGKERELVASISWGGGSTYYADSVKGRFTISRDNAKNTVYLQMNSLKQEDTAVYYCNAVYDLYHYWKFYYWGQGTQVTVSS | low polyreactivity |
| QVQLVESGGGLVQAGGSLRLSCAASGSILDRNAMGWYRQAPGKERELVAAISRSRGSTYYADSVKGRFTISRDNAKNTVYLQMNSLKPEDTAVYYCNAYYPFYTLIYGGPVRYYNFDYWGQGPQVTVSS | high polyreactivity |
| QVQLVESGGGLVQAGGSLRLSCAASGSILDSNAMGWYRQAPGQERELVAAISRSGVSTHYADSVKGRFSISRDNAKNTVYLQMNSLKPEDTAVYYCARTGQSLYSRYYYWGQGTQVTVSS | low polyreactivity |
| QVQLVESGGGLVQAGGSLRLSCAASGSILEIYAMGWYRQAPGKESEFVASISWDVSSTYYADSVKGRFTISRDNAKNTVYLQMNSLKPEDTAVYYCATSLVWGLYDWYYDLSAAFDYWGQGTQVTVSS | low polyreactivity |
| QVQLVESGGGLVQAGGSLRLSCAASGSILEPYAMGWYRQAPGKERELVAAISSSGGSTRYADSVKGRFTISRDNAKNTVYLQMNSLKPEDTAVYYCAARFRAKFNYWGQGTQVTVSS | low polyreactivity |
| QVQLVESGGGLVQAGGSLRLSCAASGSILEVYAMGWYRQAPGKERELVAAISDGDSTYYADSVKGRFTISRDNAKNTVYLQMNSLKPEDTAVYYCAAEFVGTLWWYDDWGQGTQVTVSS | low polyreactivity |
| QVQLVESGGGLVQAGGSLRLSCAASGSILFANAMGWYRQAPGKERELVAAIRGSGSTYYADSVKGRFTISRDNAKNTVYLQMNSLKPEDTAVYYCAKRHLISIPDYGRHEYDYWGQGTQVTVSS | low polyreactivity |
| QVQLVESGGGLVQAGGSLRLSCAASGSILFTNAMGWYRQAPGKERELVAAISSGGSTYFADSVKGRFTISRDNAKNTVYLQMNSLKQEDTAVYYCAADQLNVGREYVEYDYWGQGTQVTVSS | low polyreactivity |
| QVQLVESGGGLVQAGGSLRLSCAASGSILFTNAMGWYRQAPGKERELVAAISSGGSTYYADSVKGRFTISRDNAKNTVYLQMNSLKPEDTAVYYCAASDHYRWYVHRWEDPFYYWGQGTQVTVSS | low polyreactivity |
| QVQLVESGGGLVQAGGSLRLSCAASGSILGGNAMGWSRQAPGKERELVAAITFSGGGTYYADSVKGRFTISRDNAKNTVYLQMNSLKPEDTAVYYCAADKDGYTYEFDYWGQGTQVTVSS | low polyreactivity |
| QVQLVESGGGLVQAGGSLRLSCAASGSILGHYAMGWYRQAPGKERELVAAISWSGGSTYYADSVKGRFTISRDNAKNTVYLQMNSLKPEDTAVYYCNAAAILYTSAGSLYWYDYWGQGTQVTVSS | low polyreactivity |
